Measurements published in patent US6987169.

Target: hIK1 intermediate conductance, calcium-activated potassium channel (human) (UniProt O15554)
Assay: cell-based or functional assay

Sequence of hIK1 intermediate conductance, calcium-activated potassium channel (human) (O15554 other isoform, or with tags, fused parts or gaps): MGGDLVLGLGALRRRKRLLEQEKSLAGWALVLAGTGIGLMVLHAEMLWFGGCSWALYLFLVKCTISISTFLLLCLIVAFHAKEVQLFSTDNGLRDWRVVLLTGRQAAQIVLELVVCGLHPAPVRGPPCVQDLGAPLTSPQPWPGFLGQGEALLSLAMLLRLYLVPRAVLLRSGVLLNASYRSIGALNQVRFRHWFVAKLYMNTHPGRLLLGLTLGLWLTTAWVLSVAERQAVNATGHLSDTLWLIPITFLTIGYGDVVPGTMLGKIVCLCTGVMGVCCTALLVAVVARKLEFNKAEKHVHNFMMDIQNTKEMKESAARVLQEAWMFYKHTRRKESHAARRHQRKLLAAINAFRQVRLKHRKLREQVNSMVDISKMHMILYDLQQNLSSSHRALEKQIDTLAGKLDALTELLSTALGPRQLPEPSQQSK
Sequence of iberiotoxin (P24663 whole entry): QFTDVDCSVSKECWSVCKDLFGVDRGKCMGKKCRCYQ

“iberiotoxin (from UniProt P24663 1-37) (peptide)” was tested, and the percent block of hIK1 currents at 50 nM was 15%.
